Substrate in this data set: O=P(O)(O)OC[C@H](O)CO
As to the kind of experiment: purified protein. Particulars: 0.1 M phosphate buffer pH 7.2, acyl-CoA co-substrate not named, methods text mentions membrane protein, conclusions print 36.5 mmol L^-1. The class given is biochemical, Glycine max.

B1: GmGPAT1 (Glycine max) (protein)
chain: MSTTGSSAYHCVAHLPNNKTMFMLSTPPTTTFFATPRVLPFLSSKLSSSSSSSTASSSPCCSSITPKVKSKDNNNCYLVSAKHSPANMSASVSSRTFLNARNEQELLAGIRKEVEAGSLPANVAAGMEEVYNNYKSAVIQSGDPKSKEIVLSNMIALLDRIFLDVTDPFVFQPHHKAKREPFDYYVFGQNYIRPLVDFKNSYVGNMPLFIEMEEKLKQGHNIILMSNHQTEADPAIIALLLETRLPYIAENMTYVAGDRVITDPLSKPFSIGRNLICVYSKKHMLDDPALVEMKRNANIRALKEMAMLLRSGSQIVWIAPSGGRDRPDPHTGEWAPAPFDTSSVDNMRRLVEHSGPPGHVYPLAILCHDIMPPPLKVEKEIGEKRIISFHGTGISVAPALSFSETTATSENPEKAKEVFTKALYDSVTEQYNVLKSAIHGKKGFEASTPVVSLSQSWK
Consider B1, for which the Km was 36.47 mM.

Source of the values: article PMC12473205, “Characterization of the Soybean GPAT Gene Family Identifies GmGPAT1 as a Key Protein in Salt Stress Tolerance” (Plants, 2025).
